# Read-outs that look alike come from different tables or passages of the source.
# What was measured:
# Type in all cases: biochemical
# [1] = test system: LPETG (Abz-LPETGK(Dnp)-CONH2); assay: In vitro sortase kinetics HPLC assay, LPETG substrate; settings: substrate wt (LPETG)
# Protocol: (§1) See below for details on sortase expression and purification, and on the synthesis of Abz-LPETGK(Dnp)-CONH2 (SEQ ID NO: 19). […] Reactions were initiated with the addition of enzyme and incubated at 22.5° C. for 3 to 20 minutes before quenching with 0.5 volumes of 1 M HCl. Five to ten nmol of peptide from the quenched reactions were injected onto an analytical reverse-phase Eclipse XDB-C18 HPLC column (4.6×150 mm, 5 μm, Agilent Technologies) and chromatographed using a gradient of 10 to 65% acetonitrile with 0.1% TFA in 0.1% aqueous TFA over 13 minutes. Retention times under these conditions for the Abz-LPETGK(Dnp)-CONH2 (SEQ ID NO: 19) substrate, the released GKDnp peptide, and the Abz-LPETGGG-COOH (SEQ ID NO: 20) product were 12.8, 10.4, and 9.1 min, respectively. To calculate the percent conversion, the ratio of the integrated areas of the Abz-LPETGGG-COOH (SEQ ID NO: 20) and Abz-LPETGK(Dnp)-CONH2 (SEQ ID NO: 19) peptide Abs220 peaks was compared to a standard curve generated by mixing the product and starting peptide in known ratios. To determine […] and Km, reaction rates were fit to the Michaelis-Menten equation using OriginPro 7.0 software. All kinetics values reported represent the average of at least three measurements. Percent conversion was also calculated by using the ratio of the integrated areas of the GK(Dnp)-CONH2 and Abz-LPETGK(Dnp)-CONH2 peptide Abs355 peaks were compared directly (Example 5). To determine kcat and Km, LPETG, reaction rates were fit to the Michaelis-Menten equation using Microsoft Excel using the Solver add-in. To determine Km,GGG and KH, reaction rates were fit to the modified Michaelis-Menten, for which KH is as defined when KH<<Km,GGG.
# (§2) Assays to determine eSrtA, eSrtA(2A-9) and eSrtA(4S-9) specificity were performed by preparing 10 μM stocks of Abz-LXEXGK(Dnp) (SEQ ID NO: 75) peptides in 300 mM Tris pH 7.5, 150 mM NaCl, 5 mM CaCl2, 5% v/v DMSO, and 100 mM Gly-Gly-Gly-COOH (GGG). Reactions were performed by adding eSrtA(2A-9) to a final concentration of 450 nM, eSrtA(4S-9) to a final concentration of 115 nM or eSrtA to a final concentration of 47.5 nM and a final volume of 100 μL, then incubating at 22.5° C. for 15 minutes. Reactions were quenched by the addition of 0.2 volumes of 5 M HCl, then were injected onto an analytical reverse-phase Eclipse XDB-C18 HPLC column (4.6×150 mm, 5 μm, Agilent Technologies) and chromatographed using a gradient of 10 to 65% acetonitrile with 0.1% TFA in 0.1% aqueous TFA over 13 minutes. Retention times under these conditions for the Abz-LPETGK(Dnp)-CONH2 (SEQ ID NO: 19) substrate, the released GKDnp peptide, and the Abz-LPETGGG-COOH (SEQ ID NO: 20) product were 12.8, 10.4, and 9.1 min, respectively, while the remaining Abz-LXEXGK(Dnp)-CONH2 (SEQ ID NO: 74) substrates varied in retention time between 9 and 13 minutes. To calculate the percent conversion, the ratio of the integrated areas of the GK(Dnp)-CONH2 and Abz-LPETGK(Dnp)-CONH2 (SEQ ID NO: 19) peptide Abs355 peaks were compared directly. Subsequent determination of kcat/Km and KH were performed as described for in vitro SrtA characterization.
# (§3) In each case, rate constants were determined by measuring enzyme velocity at eight different substrate concentrations by HPLC assay, then fit using nonlinear regression to the Michaelis-Menten equation, yielding kcat and Km. KH was calculated by measuring enzyme velocity at 1 mM target substrate and eight different GGG concentrations by HPLC assay, then fitting the resulting curves using nonlinear regression to the modified Michaelis-Menten equation.
# [2] = test system: LPESG (Abz-LPESGK(Dnp)-CONH2); assay: In vitro sortase kinetics HPLC assay, LPESG substrate; settings: for kcat, 1 mM LxExG (Hz) / kHydrolysis (Hz): GGG varied; for Specificity / preference for LPESG over LPETG: ratio of kcat/KM; for Specificity: 4S (LPESG) over wt (LPETG); for specificity (relative cat. Efficiency, fold): ratio of kcat/Km between 4S (LPESG) and wt (LPETG) substrates; for kHydrolysis (Hz): 1 mM
# Protocol: as §1, §2, §3
# [3] = test system: LAETG (Abz-LAETGK(Dnp)-CONH2); assay: In vitro sortase kinetics HPLC assay, LAETG substrate; settings: for Specificity (relative catalytic efficiency, fold): ratio of kcat/KM between 2A (LAETG) and wt (LPETG)
# Protocol: as §1, §2, §3
# [4] = Example 5 variants, read-out: Avg KM
# [5] = 1 mM 4S (LPESG) substrate, read-out: Km, GGG
# [6] = Example 5 variants, substrate 4S (LPESG)
# [7] = Example 5 variants, substrate 4S (LPESG), read-out: Avg KM
# [8] = substrate 4S (LPESG), read-out: Km, LxExG
# [9] = Example 5 variants, substrate 2A (LAETG)
# [10] = Example 5 variants, substrate 2A (LAETG), read-out: Avg KM
# [11] = GGG varied, substrate 2A (LAETG)
# [12] = substrate 2A (LAETG), read-out: Km, LxExG
Molecule,Avg kcat (Hz) ([1]; Example 5 variants),"Km [1, 4]","kcat, 10 mM GGG (Hz) [1]","Km ([1]; read-out: Km, LxExG)","Avg kcat (Hz) [2, 6]","Km [2, 7]",Specificity [2],"specificity (relative cat. Efficiency, fold) [2]","kcat, 10 mM GGG (Hz) ([2]; substrate 4S (LPESG))","Km [2, 8]",also measured
eSrtA(4S-5): 5mut + N98D A104V A118T F122A K134R I182V (protein) QAKPQIPKDKSKVAGYIEIPDADIKEPVYPGPATREQLDRGVSFVEENESLDDQNISITGHTAIDRPNYQFTNLRAAKKGSMVYFKVGNETRKYKMTSIRNVKPTAVEVLDEQKGKDKQLTLVTCDDYNEETGVWETRKIFVATEVK,0.00606 Hz,11.7 µM,0.006149 Hz,12.2 µM,0.3877 Hz,76 µM,9.672,9.999 fold,0.3877 Hz,76 µM,"Khydrolysis ([2]; 1 mM 4S (LPESG) substrate): 190.8 µM; kcat, 1 mM LxExG (Hz) ([2]; 1 mM 4S (LPESG) substrate): 1.342 Hz; Km [2, 5]: 26700 µM; increase in kcat/Km for LPESG as compared to LPETG ([2]; FIG. 2): ~2 fold; increased affinity (KM) for the LPESG substrate as compared to the LPETG substrate ([2]; FIG. 2): ~8 fold; KH (KH,LPESG) ([2]; LPESG substrate): 190 ± 16 µM; kL/KL/KH ([2]; substrate 4S (LPESG)): 2.69E+07; kHydrolysis (Hz) ([2]; substrate 4S (LPESG)): 0.009551 Hz"
eSrtA(2A-6): round 6 consensus variant targeting LAETG; kinetics close to 2A.6A (protein) QAKPQIPKDKSKVAGYIEIPDADIKEPVYPGPATREQLNRGVSFHEENESLDDQNISIAGHTFIDRPNYQFTNLKAAKVGSMVYFKVGNETRKYKMTSIRNVRPTAVEVLDEQKGKDKQLTLVTCDDYNEETGVWETRKIFVATEVK,0.1622 Hz,3400 µM,–,–,–,–,–,–,–,–,"Avg kcat (Hz) [3, 9]: 2.579 Hz; Km [3, 10]: 665 µM; KH ([3]; GGG concentration at which hydrolysis and transpeptidation rates are equal, 2A (LAETG) variant): 149 ± 63 µM; Avg kHydro (Hz) [3, 11]: 0.2347 Hz; Avg kcat (Hz) [3, 11]: 1.734 Hz; Km ([3]; KM for GGG, substrate 2A (LAETG), read-out: Avg KM): 1110 µM; Specificity (relative catalytic efficiency, fold) [3]: 82.4 fold; Avg KH ([3]; substrate 2A (LAETG)): 148.9406 µM"
eSrtA(4S-3.5) (protein) QAKPQIPKDKSKVAGYIEIPDADIKEPVYPGPATREQLNRGVSFTEENESLDDQNISITGHTFIDRPNYQFTNLKAAKKGSMVYFKVGNETRKYKMTSIRNVKPTAVEVLDEQKGKDKQLTLVTCDDYNEETGVWETRKIFVATEVK,5.482 Hz,39300 µM,–,–,5.779 Hz,38800 µM,1.454,–,1.118 Hz,7310 µM,"lower activity than that of eSrtA on its native LPETG substrate ([2]; minimal mutant, LPETG and LPESG processed): ~100 fold"
eSrtA(2A-3.5) (protein) QAKPQIPKDKSKVAGYIEIPDADIKEPVYPGPATREQLNRGVSFAEENESLDDQNISIAGHTFIDRPNYQFTNLKAAKKGSMVYFKVGNETRKYKMTSIRNVRPTAVEILDEQKGKDKQLTLFTCDDYNEETGVWETRKIFVATEVK,1.525 Hz,3750 µM,1.587 Hz,4110 µM,–,–,–,–,–,–,"Avg kcat (Hz) [3, 9]: 1.14 Hz; Km [3, 10]: 6370 µM; lower activity than that of eSrtA on its native LPETG substrate ([3]; minimal mutant, LPETG and LAETG processed): ~100 fold; Specificity (relative catalytic efficiency, fold) [3]: 2.252 fold; kcat, 10 mM GGG (Hz) ([3]; substrate 2A (LAETG)): 1.249 Hz; Km [3, 12]: 7160 µM"
eSrtA(4S-4): 5mut + A104V A118T F122S I182V (protein) QAKPQIPKDKSKVAGYIEIPDADIKEPVYPGPATREQLNRGVSFVEENESLDDQNISITGHTSIDRPNYQFTNLKAAKKGSMVYFKVGNETRKYKMTSIRNVKPTAVEVLDEQKGKDKQLTLVTCDDYNEETGVWETRKIFVATEVK,0.1073 Hz,491 µM,0.09571 Hz,339 µM,0.7574 Hz,1560 µM,2.224,1.823 fold,0.7269 Hz,1410 µM,preference for LPESG over LPETG [2]: 2 fold
eSrtA(4S-3): round 3 LPESG clone: eSrtA + N98S A104T A118T F122S D124G K134R K173E K177E I182V (protein) QAKPQIPKDKSKVAGYIEIPDADIKEPVYPGPATREQLSRGVSFTEENESLDDQNISITGHTSIGRPNYQFTNLRAAKKGSMVYFKVGNETRKYKMTSIRNVKPTAVEVLDEQEGKDEQLTLVTCDDYNEETGVWETRKIFVATEVK,0.007565 Hz,3390 µM,–,–,2.543 Hz,3330 µM,244.976,–,–,–,"preference for LPESG over LPETG [2]: 245 fold; reduced catalytic efficiency ([2]; round 3 clone, LPESG target): > 10 fold"
2A.6A: 5mut + A104H K138V K162R I182V (protein) QAKPQIPKDKSKVAGYIEIPDADIKEPVYPGPATREQLNRGVSFHEENESLDDQNISIAGHTFIDRPNYQFTNLKAAKVGSMVYFKVGNETRKYKMTSIRNVRPTAVEVLDEQKGKDKQLTLVTCDDYNEETGVWETRKIFVATEVK,–,–,0.1572 Hz,3290 µM,–,–,–,–,–,–,"Khydrolysis ([3]; 1 mM 2A (LAETG) substrate): 135.8 µM; kcat, 1 mM LxExG (Hz) ([3]; 1 mM 2A (LAETG) substrate, GGG varied): 1.714 Hz; Km ([3]; 1 mM 2A (LAETG) substrate, read-out: Km, GGG): 1040 µM; specificity (relative cat. Efficiency, fold) ([3]; ratio of kcat/Km between 2A (LAETG) and wt (LPETG) substrates, favoured over disfavoured): 86.36 fold; kL/KL/KH ([3]; substrate 2A (LAETG)): 3.04E+07; kHydrolysis (Hz) ([3]; substrate 2A (LAETG), 1 mM, GGG varied): 0.2252 Hz; kcat, 10 mM GGG (Hz) ([3]; substrate 2A (LAETG)): 2.47 Hz; Km [3, 12]: 608 µM"
4S.6B: 5mut + N98D A104V A118S F122A K134P I182V E189P (protein) QAKPQIPKDKSKVAGYIEIPDADIKEPVYPGPATREQLDRGVSFVEENESLDDQNISISGHTAIDRPNYQFTNLPAAKKGSMVYFKVGNETRKYKMTSIRNVKPTAVEVLDEQKGKDKQLTLVTCDDYNPETGVWETRKIFVATEVK,–,–,1.081 Hz,238 µM,–,–,–,0.9102 fold,1.242 Hz,312 µM,"Khydrolysis ([2]; 1 mM 4S (LPESG) substrate): 122.3 µM; kcat, 1 mM LxExG (Hz) ([2]; 1 mM 4S (LPESG) substrate): 2.132 Hz; Km [2, 5]: 15700 µM; increased affinity (KM) for the LPESG substrate as compared to the LPETG substrate ([2]; FIG. 2): ~2 fold; kL/KL/KH ([2]; substrate 4S (LPESG)): 3.38E+07; kHydrolysis (Hz) ([2]; substrate 4S (LPESG)): 0.0167 Hz"

# — patent publication US10202593B2, “Evolved sortases and uses thereof” (President and Fellows of Harvard College, priority 2013, dated 2019)
